Test results as given in article PMC5745148, “Mechanistic Insights into Autoinhibition of the Oncogenic Chromatin Remodeler ALC1” (Molecular Cell, 2017).

What was measured:
Details in all cases: both partners purified
[1] = biological target: T1, ALC1^cat (ATPase motor of human ALC1, residues 16-612), 6xHis-tagged (human, UniProt Q86WJ1 16-612); experiment: SEC; 7 nmol each of ALC1^cat and ALC1^macro mixed, 10 min on ice, Superdex 200 10/300 GL, 20 mM MES pH 6.5, 300 mM NaCl, 10% glycerol, 0.5 mM TCEP; peak fractions on SDS-PAGE
T1 construct: human ALC1 (Amplified in liver cancer 1; CHD1L), residues 16-612; Made by PCR-based mutagenesis of the ALC1^fl construct (pNIC-CH2); also called ALC1/CHD1L variant that lacks the macro domain; source: E. coli Rosetta 2 (DE3), purified (HisTrap, Q HP, Superdex 200)
T1 sequence (looked up): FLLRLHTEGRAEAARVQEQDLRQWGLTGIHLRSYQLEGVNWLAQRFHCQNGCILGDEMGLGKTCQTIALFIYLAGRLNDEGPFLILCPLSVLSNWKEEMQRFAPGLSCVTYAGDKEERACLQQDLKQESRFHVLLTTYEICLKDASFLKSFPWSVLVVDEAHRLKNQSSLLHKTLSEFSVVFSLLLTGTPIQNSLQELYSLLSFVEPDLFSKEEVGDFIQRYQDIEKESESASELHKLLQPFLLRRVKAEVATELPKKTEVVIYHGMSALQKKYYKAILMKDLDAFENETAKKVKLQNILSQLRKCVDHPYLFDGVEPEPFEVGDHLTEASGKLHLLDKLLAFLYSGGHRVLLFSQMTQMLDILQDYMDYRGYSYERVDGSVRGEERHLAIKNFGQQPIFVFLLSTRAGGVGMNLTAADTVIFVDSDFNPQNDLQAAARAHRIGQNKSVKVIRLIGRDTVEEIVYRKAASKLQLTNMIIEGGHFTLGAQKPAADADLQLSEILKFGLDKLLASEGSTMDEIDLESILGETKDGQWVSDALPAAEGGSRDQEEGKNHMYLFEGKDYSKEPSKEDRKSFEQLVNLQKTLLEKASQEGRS

[2] = biological target: T2, PARylated (activated) human PARP1 used in HDX-MS (human, UniProt P09874 1-1014, poly(ADP-ribose) (PARylated; sites not stated)); experiment: HDX-MS; ALC1^fl with and without PARylated or non-PARylated PARP1; 50 mM Tris, 50 mM NaCl, 5 mM MgCl2, 1.5 μM 239 bp dsDNA, 1 mM ATP, 1 mM TCEP pH 7.9, ~70% D2O, 23°C, five time points
T2 construct: human PARP1; also called PARylated PARP1

[3] = biological target: T1, ALC1^cat (ATPase motor of human ALC1, …); experiment: pull-down; 5 μM 6xHis-ALC1^cat and 5 μM ALC1^macroΔ6xHis, Ni-NTA agarose, 1 h at 4°C, 20 mM HEPES pH 7.5, 300 mM NaCl, 10% glycerol, 20 mM imidazole, 0.5 mM TCEP; where indicated 5 μM GST-PARP1 pre-incubated with dsDNA and NAD+; eluate on SDS-PAGE
[4] = biological target: T3, PARylated GST-tagged human PARP1 (human, UniProt P09874 1-1014, poly(ADP-ribose) (PARylated by incubation with dsDNA and NAD+; sites not stated)); experiment: as above
T3 construct: human PARP1; also called PARylated PARP1; GST-tagged PARP1 (BPS Bioscience); source: bought: BPS Bioscience; incubated with 230 bp dsDNA and NAD+ for 5 min at 37°C
T3 sequence (P09874 whole entry): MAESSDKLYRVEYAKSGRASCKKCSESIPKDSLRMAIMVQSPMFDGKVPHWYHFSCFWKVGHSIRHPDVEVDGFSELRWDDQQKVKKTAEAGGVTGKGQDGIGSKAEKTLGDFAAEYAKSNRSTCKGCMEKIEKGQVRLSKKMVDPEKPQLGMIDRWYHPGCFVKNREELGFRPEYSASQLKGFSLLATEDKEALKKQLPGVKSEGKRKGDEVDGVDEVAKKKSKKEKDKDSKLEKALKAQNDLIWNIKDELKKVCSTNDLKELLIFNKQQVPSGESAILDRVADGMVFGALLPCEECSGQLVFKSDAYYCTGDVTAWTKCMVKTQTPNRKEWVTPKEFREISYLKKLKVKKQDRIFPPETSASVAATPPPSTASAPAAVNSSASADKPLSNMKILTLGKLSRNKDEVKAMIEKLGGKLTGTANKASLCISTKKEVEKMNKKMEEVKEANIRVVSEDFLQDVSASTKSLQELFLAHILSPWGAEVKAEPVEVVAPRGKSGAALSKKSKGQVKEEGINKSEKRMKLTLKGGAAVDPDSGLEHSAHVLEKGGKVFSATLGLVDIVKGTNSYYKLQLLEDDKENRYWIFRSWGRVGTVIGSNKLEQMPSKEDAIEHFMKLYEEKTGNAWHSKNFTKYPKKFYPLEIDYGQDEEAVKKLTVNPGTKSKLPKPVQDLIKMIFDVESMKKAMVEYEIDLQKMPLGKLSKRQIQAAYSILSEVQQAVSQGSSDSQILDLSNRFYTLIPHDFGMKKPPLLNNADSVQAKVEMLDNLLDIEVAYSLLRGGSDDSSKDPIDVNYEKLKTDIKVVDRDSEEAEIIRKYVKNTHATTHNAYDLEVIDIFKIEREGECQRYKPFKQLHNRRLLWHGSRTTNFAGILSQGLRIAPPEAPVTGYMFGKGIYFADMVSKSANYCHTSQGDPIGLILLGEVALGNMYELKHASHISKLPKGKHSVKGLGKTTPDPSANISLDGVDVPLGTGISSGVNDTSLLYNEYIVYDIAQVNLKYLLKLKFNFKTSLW

T2 sequence (P09874 whole entry): as above

B1: ALC1^macro (macro domain construct of human ALC1, residues 613-879), 6xHis-tagged (domain or fragment, UniProt Q86WJ1 613-879, looked up)
chain: LRNKGSVLIPGLVEGSTKRKRVLSPEELEDRQKKRQEAAAKRRRLIEEKKRQKEEAEHKKKMAWWESNNYQSFCLPSEESEPEDLENGEESSAELDYQDPDATSLKYVSGDVTHPQAGAEDALIVHCVDDSGHWGRGGLFTALEKRSAEPRKIYELAGKMKDLSLGGVLLFPVDDKESRNKGQDLLALIVAQHRDRSNVLSGIKMAALEEGLKKIFLAAKKKKASVHLPRIGHATKGFNWYGTERLIRKHLAARGIPTYIYYFPRSK
notes: human ALC1 (CHD1L), residues 613-879 (linker and macro domain); Made from the ALC1^fl construct (pNIC-CH2); no cleavage of the tag is described for this version; source: E. coli Rosetta 2 (DE3), purified (HisTrap, Q HP/SP HP, Superdex 200)
binding result [1]: binds

B2: ALC1^fl (essentially full-length human ALC1, residues 16-879), 6xHis-tagged (enzyme, UniProt Q86WJ1 16-879, looked up)
chain: FLLRLHTEGRAEAARVQEQDLRQWGLTGIHLRSYQLEGVNWLAQRFHCQNGCILGDEMGLGKTCQTIALFIYLAGRLNDEGPFLILCPLSVLSNWKEEMQRFAPGLSCVTYAGDKEERACLQQDLKQESRFHVLLTTYEICLKDASFLKSFPWSVLVVDEAHRLKNQSSLLHKTLSEFSVVFSLLLTGTPIQNSLQELYSLLSFVEPDLFSKEEVGDFIQRYQDIEKESESASELHKLLQPFLLRRVKAEVATELPKKTEVVIYHGMSALQKKYYKAILMKDLDAFENETAKKVKLQNILSQLRKCVDHPYLFDGVEPEPFEVGDHLTEASGKLHLLDKLLAFLYSGGHRVLLFSQMTQMLDILQDYMDYRGYSYERVDGSVRGEERHLAIKNFGQQPIFVFLLSTRAGGVGMNLTAADTVIFVDSDFNPQNDLQAAARAHRIGQNKSVKVIRLIGRDTVEEIVYRKAASKLQLTNMIIEGGHFTLGAQKPAADADLQLSEILKFGLDKLLASEGSTMDEIDLESILGETKDGQWVSDALPAAEGGSRDQEEGKNHMYLFEGKDYSKEPSKEDRKSFEQLVNLQKTLLEKASQEGRSLRNKGSVLIPGLVEGSTKRKRVLSPEELEDRQKKRQEAAAKRRRLIEEKKRQKEEAEHKKKMAWWESNNYQSFCLPSEESEPEDLENGEESSAELDYQDPDATSLKYVSGDVTHPQAGAEDALIVHCVDDSGHWGRGGLFTALEKRSAEPRKIYELAGKMKDLSLGGVLLFPVDDKESRNKGQDLLALIVAQHRDRSNVLSGIKMAALEEGLKKIFLAAKKKKASVHLPRIGHATKGFNWYGTERLIRKHLAARGIPTYIYYFPRSK
notes: human ALC1 (CHD1L), residues 16-879; also called Human ALC1^fl (16-879) pNIC-CH2; source: E. coli Rosetta 2 (DE3), purified (HisTrap, Q HP/SP HP, Superdex 200)
binding result [2]: binds

B3: ALC1^macroΔ6xHis (macro domain construct of human ALC1, residues 613-879, 6xHis tag removed by TEV) (domain or fragment, UniProt Q86WJ1 613-879, looked up)
chain: LRNKGSVLIPGLVEGSTKRKRVLSPEELEDRQKKRQEAAAKRRRLIEEKKRQKEEAEHKKKMAWWESNNYQSFCLPSEESEPEDLENGEESSAELDYQDPDATSLKYVSGDVTHPQAGAEDALIVHCVDDSGHWGRGGLFTALEKRSAEPRKIYELAGKMKDLSLGGVLLFPVDDKESRNKGQDLLALIVAQHRDRSNVLSGIKMAALEEGLKKIFLAAKKKKASVHLPRIGHATKGFNWYGTERLIRKHLAARGIPTYIYYFPRSK
notes: human ALC1 (CHD1L), residues 613-879; A TEV-cleavage site was added to the ALC1^macro construct; also called ALC1^macro6xΔHis; non-tagged macro domain; source: E. coli Rosetta 2 (DE3), purified; TEV cleavage of the 6xHis tag, second HisTrap flow-through
binding result [3]: binds | binding result [4]: binds
